Reference: publication PMC4140278

Assays:
[1] = biological target: arrestin-3 (β-arrestin-2) (UniProt P32121); experiment: BRET, arrestin-3-Rluc / FLAG-FFA4-eYFP, 5 min; conditions: for percent of reference: reference: wild type
[2] = biological target: arrestin-3 (β-arrestin-2) (UniProt P32121); experiment: kinetic BRET, arrestin-3-Rluc / FFA4-eYFP; conditions: reference: wild type; sites T347,S350,S357

## FFA4 (GPR120) (from UniProt Q5NUL3) TTSS/AAAA
[1]; reference: TSS/AAA, sites T349
  other: Emax, % of wild type: same; reference 77 ± 2
[1]; sites T347,T349,S350,S357
  percent of reference: 84%

## FFA4 (GPR120) (from UniProt Q5NUL3) TTSSS/AAAAA
[1]; reference: TSS/AAA, sites T349,S360
  other: Emax, % of wild type: weaker; reference 77 ± 2
[1]; reference: TSSS/AAAA, sites T349
  other: Emax, % of wild type: same; reference 38 ± 2
[1]; reference: TTSS/AAAA, sites S360
  other: Emax, % of wild type: weaker; reference 84 ± 7
[1]; sites T347,T349,S350,S357,S360
  percent of reference: 42%

## FFA4 (GPR120) (from UniProt Q5NUL3) TSS/AAA-DD/AA
[1]; reference: DD/AA, sites T347,S350,S357
  other: Emax, % of wild type: 40%

## FFA4 (GPR120) (from UniProt Q5NUL3) S360A
[1]; sites S360
  percent of reference: 85%

## FFA4 (GPR120) (from UniProt Q5NUL3) TUG-891 10 µM, 5 min
[1]; reference: vehicle, sites T347,T349,S350,S357,S360
  other: milli-BRET units: stronger; reference 63 ± 6

## FFA4 (GPR120) (from UniProt Q5NUL3) TSS/AAA
[1]; sites T347,S350,S357
  percent of reference: 77%
[2]
  other: t½ of association: weaker; reference 46 ± 6

## FFA4 (GPR120) (from UniProt Q5NUL3) TSSS/AAAA
[1]; reference: TSS/AAA, sites S360
  other: Emax, % of wild type: weaker; reference 77 ± 2
[1]; sites T347,S350,S357,S360
  percent of reference: 38%

## FFA4 (GPR120) (from UniProt Q5NUL3) TTSSS/AAAAA-EDD/AAA
[1]; reference: EDD/AAA, sites T347,T349,S350,S357,S360
  other: Emax, % of wild type: weaker; reference 69 ± 7

## FFA4 (GPR120) (from UniProt Q5NUL3) TTSSS/AAAAA-DD/AA
[1]; reference: DD/AA, sites T347,T349,S350,S357,S360
  other: Emax, % of wild type: 21%
